Measured values as given in patent EP3670537A1.

Target: Claudin 18 splice variant 2 (CLDN18.2) (human)
Assay: cell-based or functional assay

in vitro EC50 concentration, CDC on CLDN18.2-transfected CHO-K1 cells: 0.5 µg/mL | lysis rate, CDC on CLDN18.2-transfected CHO-K1 cells, pooled sera from healthy controls with 0.5 µg/ml IMAB362: 64.5% | lysis rate, CDC on CLDN18.2-transfected CHO-K1 cells, pre-infusion serum of patient 0204 with 0.5 µg/ml fresh IMAB362: 93.9%
Substance: IMAB362 (antibody)
in vitro EC80-100, total cytotoxicity assay on NUGC-4 cells with healthy donor PBMCs (E:T 40:1) and 25% serum: 200 µg/mL | specific killing of NUGC-4 cells by IMAB362 in patient serum 28-32 days after administration, all dose groups: > 48%
